Assay results as given in patent US20160003835, “APTAMERS AND USES THEREOF” (CARIS LIFE SCIENCES SWITZERLAND HOLDINGS S.A.R.L., published 2016).

Experiments:
PSMA (FOLH1/NAALADase I) = PSMA (FOLH1/NAALADase I) (UniProt Q04609 Q04609:44-750); assay: ELONA; ELISA against recombinant PSMA, values only in figure; conditions: label: biotin
EpCAM [1] = molecular target: T1, EpCAM (UniProt P16422 P16422:24-265); assay: SPR; immobilized biotinylated aptamer, HBS-EP+ buffer, global fit; conditions: label: biotin
T1 sequence: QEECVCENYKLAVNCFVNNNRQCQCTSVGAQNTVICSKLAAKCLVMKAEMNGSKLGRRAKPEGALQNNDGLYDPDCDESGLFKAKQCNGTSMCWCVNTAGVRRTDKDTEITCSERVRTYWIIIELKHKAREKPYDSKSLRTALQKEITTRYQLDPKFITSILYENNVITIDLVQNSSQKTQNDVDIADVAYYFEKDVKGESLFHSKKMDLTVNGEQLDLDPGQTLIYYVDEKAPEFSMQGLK

EpCAM [2] = molecular target: T1, EpCAM; assay: as above; conditions: label: biotin; remark: listed apart in the source
Procedure: FIG. 4 illustrates results from a binding assay showing the binding affinity of an exemplary aptamer (Aptamer ID BTX176881 (SEQ ID NO. 98883)) to the target EpCAM protein at various target concentrations. The aptamer to be tested is fixed to a substrate using a biotin tail and is incubated with various concentrations of target (125, 250 and 500 nM). The test is performed on a surface plasmon resonance machine (SPR). The SPR machine detects association and disassociation of the aptamer and the target. Target is applied until the association and disassociation events are equal, resulting in a plateau of the curve. The equations describing the curve at each concentration can then be used to calculate the KD of the aptamer (see Table 5).
The Biacore 200 control software is programmed with the following conditions: Solution: HBS-EP+Buffer; Number of cycles: 3; Contact time: 120s; Flow rate: 30 μl/min; Dissociation time: 300s; Solution: Glycine-HCl pH 2.5; Contact time: 120s; Flow rate: 20 μl/min; Stabilization period: Os. The binding affinities of these aptamers are then measured using the SPR assay above, or an alternate in vitro assay assessing the aptamer for a desired function.

EpCAM [3] = molecular target: T1, EpCAM; assay: bead fluorescence assay, anti-His beads; improved by 1 mM MgCl2 in 25 mM HEPES; lower affinity than Aptamer 4; conditions: tags: His tag; label: biotin / SA-PE
Procedure: Purified CAR003 aptamer was tested for binding to recombinant EPCAM protein with a polyhistidine tag (“His tagged”) using the following internally developed assay. Anti-His tag conjugated beads were mixed with EPCAM-His tagged protein. The aptamer to be tested was labeled with streptavidin-phycoerythrin (SA-PE). The EpCAM-beads and SA-PE labeled aptamers were mixed. Binding was determined as median flourescent value in a bead assay as described herein. MFI values (FIG. 20E-F) increase with increased binding of the SA-PE labeled aptamer to the recombinant EpCAM. FIGS. 20E-F illustrate binding of CAR003 to EPCAM protein in 25 mM HEPES with PBS-BN (PBS, 1% BSA, 0.05% Azide, pH 7.4) (FIG. 20E) or in 25 mM HEPES with 1 mM MgCl₂ (FIG. 20F). EPCAM aptamer Aptamer 4 (see above) was used for comparison. As shown in the figures, CAR003 pool 3 more efficiently binds its target in the presence of MgCl₂ (FIG. 20F) than in the presence of BSA (FIG. 20E).
CAR003 affinity to EpCAM in the bead assay environment was assessed in the same assay as above with aptamer titrated across a constant input of antigen. FIG. 20I illustrates titration of aptamers against EPCAM recombinant protein (constant input 5 μg).

EpCAM [4] = molecular target: T1, EpCAM; assay: ELONA; standard ELISA plate; conditions: tags: Fc fusion; label: biotin

Sequence of PSMA (FOLH1/NAALADase I) (Q04609 44-750, one chain of several): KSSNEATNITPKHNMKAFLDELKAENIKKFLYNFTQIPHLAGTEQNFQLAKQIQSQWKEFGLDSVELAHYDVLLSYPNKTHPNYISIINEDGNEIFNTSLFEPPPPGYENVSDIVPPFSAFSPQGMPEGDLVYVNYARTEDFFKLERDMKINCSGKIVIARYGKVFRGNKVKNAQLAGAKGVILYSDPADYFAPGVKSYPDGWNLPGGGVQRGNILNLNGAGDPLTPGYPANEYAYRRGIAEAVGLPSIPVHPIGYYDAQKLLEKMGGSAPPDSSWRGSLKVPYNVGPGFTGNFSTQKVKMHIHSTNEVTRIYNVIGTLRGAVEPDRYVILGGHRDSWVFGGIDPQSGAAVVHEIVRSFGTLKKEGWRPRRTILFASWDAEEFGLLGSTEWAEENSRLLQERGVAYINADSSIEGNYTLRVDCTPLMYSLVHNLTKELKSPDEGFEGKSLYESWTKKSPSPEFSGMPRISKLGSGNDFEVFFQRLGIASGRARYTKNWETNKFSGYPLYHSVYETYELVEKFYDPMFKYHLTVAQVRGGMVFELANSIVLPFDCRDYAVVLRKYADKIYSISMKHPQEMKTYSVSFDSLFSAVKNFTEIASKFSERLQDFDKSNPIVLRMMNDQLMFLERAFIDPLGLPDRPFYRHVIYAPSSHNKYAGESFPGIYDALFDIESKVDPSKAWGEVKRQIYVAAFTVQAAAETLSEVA

B1: CAR051 (ssDNA)
DNA: ACTAAGCCACCGTGTCCAGCCCTATTCCCTCGCTTTCTCCCCTTTTGTTGCTGCGTCACTCTGGAT
modifications: 5' biotin
- binding result (PSMA (FOLH1/NAALADase I)): binds

B2: CAR050 (ssDNA)
DNA: ACTAAGCCACCGTGTCCACCCCCCTCTGTCTCTTGTTTCTCTTTTCTATGCTGCGTCACTCTGGAT
modifications: 5' biotin
- binding result (PSMA (FOLH1/NAALADase I)): binds

Binder: CTGTGAGGCGTACTGCGGTGAGCCTCTCATTA (ssDNA, 3' tail of 6 thymines and biotin) [BTX187269]
- Kd (EpCAM [1]): 7.12 nM

Binder: CCGCGCAGATATACAACGTACCTCTGTGCGCA (ssDNA, 3' tail of 6 thymines and biotin) [BTX176881]
- Kd (EpCAM [2]): 8.4 nM

B3: CAR003 (ssDNA)
DNA: ATCCAGAGTGACGCAGCAGTCTTTTCTGATGGACACGTGGTGGTCTAGTATCTGGACACGGTGGCTTAGT
modifications: 3' biotin (CAR003.2_3'-B, same bases as SEQ 230823)
- binding result (EpCAM [3]): binds

Binder: CCCCCCGAATCACATGACTTGGGCGGGGGTCG (ssDNA, 3' tail of 6 thymines and biotin) [Aptamer 4]
- Kd (EpCAM [1]): 10.1 nM

B4: CAR016 (ssDNA)
DNA: ACTAAGCCACCGTGTCCAACGTAAGTATATCTGTACAATGCTGCGTCACTCTGGAT
modifications: 5' biotin
- binding result (EpCAM [4]): binds
